In the supplement of paper PMC7877785:
± gives the uncertainty stated by the source.

Test: self-splicing fitness, log relative to wild type (ln ratio); higher = more splicing; Tetrahymena group I intron in knt gene, E. coli kanamycin selection, DiMSum; sequences stand for … in CUCUCU…GGAGGGAAAAGUUAUCAGGCAUGCACCUGGUAGCUAGUCUUUAAACCAAUAGAUUGCAUCGGUUUAAAAGGCAAGACCGUCAAAUUGCGGGAAAGGGGUCAACAGCCGUUCAGUACCAAGUCUCAGGGGAAACUUUGAGAUGGCCUUGCAAAGGGUAUGGUAAUAAGCUGACGGACAUGGUCCUAACCACGCAGCCAAGUCCUAAGUCAACAGAUCUUCUGUUGAUAUGGAUGCAGUUCACAGACUAAAUGUCGGUCGGGGAAGAUGUAUUCUUCUCAUAAGAUAUAGUCGGACCUCUCCUUAAUGGGAGCUAGCGGAUGAAGUGAUGCAACACUGGAGCCGCUGGGAACUAAUUUGUAUGCGAAAGUAUAUUGAUUAGUUUUGGAGUACUCGUGGUCG
How it was run: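 Six replicate transformations of E. coli BL21(DE3) with a pET-22b(+) library were grown overnight at 37°C or 30°C. The library randomised all eight P1ex-region intron nucleotides, the intron lying in the knt kanamycin-resistance gene, and plates were LB agar with or without 25 μg/mL kanamycin plus 100 μg/mL carbenicillin, 50 μM IPTG and 0.2% rhamnose. Pooled colonies were amplicon-sequenced on an Illumina HiSeq 2500, and fitness is the DiMSum error-weighted combination of wild-type-normalised replicate fold changes, kanamycin versus none.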

Row | Sequence | self-splicing fitness (ln) (30 °C) | self-splicing fitness (ln) (37 °C)
1 | CGGCAGCAAUAUUACGAAAG | -0.748 ± 0.1 | -0.538 ± 0.12
2 | CGGCAGCAAUAUUACGAAGA | -2.55 ± 0.17 | -1.25 ± 0.18
3 | CGGCAGCAAUAUUACGACAC | -3.52 ± 0.24 | -2.65 ± 0.21
4 | CGGCAGCAAUAUUACGAGAA | -3.01 ± 0.19 | -2.32 ± 0.19
5 | CGGCAGCAAUAUUACGAGAG | -3.21 ± 0.23 | -1.44 ± 0.2
6 | CGGCAGCAAUAUUACGAGGG | -2.39 ± 0.39 | -2.15 ± 0.33
7 | CGGCAGCAAUAUUACGAGUU | -5.14 ± 0.41 | -2.69 ± 0.29
8 | CGGCAGCAAUAUUACGCAUU | -2.66 ± 0.15 | -2.33 ± 0.14
9 | CGGCAGCAAUAUUACGCCUA | -0.162 ± 0.17 | 0.427 ± 0.13
10 | CGGCAGCAAUAUUACGCGAU | -2.36 ± 0.19 | -1.4 ± 0.25
11 | CGGCAGCAAUAUUACGCUAG | -2.62 ± 0.17 | -1.34 ± 0.18
12 | CGGCAGCAAUAUUACGCUGG | -3.32 ± 0.16 | -2.23 ± 0.21
13 | CGGCAGCAAUAUUACGGGGC | -2.42 ± 0.18 | -2.69 ± 0.33
14 | CGGCAGCAAUAUUACGGGUG | -0.564 ± 0.046 | -0.449 ± 0.06
15 | CGGCAGCAAUAUUACGGUGU | -4.04 ± 0.2 | -2.55 ± 0.17
16 | CGGCAGCAAUAUUACGUAGU | -3.77 ± 0.21 | -0.852 ± 0.12
17 | CGGCAGCAAUAUUACGUAUA | -3.35 ± 0.27 | -2.8 ± 0.23
18 | CGGCAGCAAUAUUACGUCCU | 0.101 ± 0.067 | 0.44 ± 0.092
19 | CGGCAGCAAUAUUACGUCGG | -1.42 ± 0.079 | -0.417 ± 0.098
20 | CGGCAGCAAUAUUACGUGCC | -2.66 ± 0.28 | 
21 | CGGCAGCAAUAUUACGUGUG | -1.09 ± 0.036 | -0.654 ± 0.05
22 | CGGCAGCAAUAUUACGUGUU | -3.41 ± 0.13 | -1.95 ± 0.13
23 | CGGGAGCAAUAUUACGAGUU | -3.12 ± 0.27 | -2.59 ± 0.36
24 | CGGGAGCAAUAUUACGAUAG |  | -1.97 ± 0.37
25 | CGGGAGCAAUAUUACGAUCC | -3.35 ± 0.21 | -1.68 ± 0.22
26 | CGGGAGCAAUAUUACGAUUU | -3.64 ± 0.33 | -1.2 ± 0.24
27 | CGGGAGCAAUAUUACGCCUG | -2.39 ± 0.28 | 
28 | CGGGAGCAAUAUUACGCGAU |  | -1.6 ± 0.41

Row | Sequence | self-splicing fitness (ln) (30 °C) | self-splicing fitness (ln) (37 °C)
29 | CGGGAGCAAUAUUACGCGUG | -3.47 ± 0.18 | -1.65 ± 0.13
30 | CGGGAGCAAUAUUACGGCGG | -1.17 ± 0.11 | -1.09 ± 0.19
31 | CGGGAGCAAUAUUACGGGAA |  | -1.85 ± 0.41
32 | CGGGAGCAAUAUUACGGGGC |  | -2.14 ± 0.43
33 | CGGGAGCAAUAUUACGGGUC |  | -2.97 ± 0.48
34 | CGGGAGCAAUAUUACGGGUU | -2.34 ± 0.32 | -2.53 ± 0.26
35 | CGGGAGCAAUAUUACGGUAA | -3.01 ± 0.34 | -1.13 ± 0.21
36 | CGGGAGCAAUAUUACGGUGA | -2.3 ± 0.33 | 
37 | CGGGAGCAAUAUUACGGUGC | -3.21 ± 0.49 | 
38 | CGGGAGCAAUAUUACGUGAA |  | -2.15 ± 0.3
39 | CGGGAGCAAUAUUACGUGAC | -2.16 ± 0.32 | -2.9 ± 0.44
40 | CGGGAGCAAUAUUACGUGCG | -2.41 ± 0.46 | -1.33 ± 0.43
41 | CGGGAGCAAUAUUACGUUAU | -2.65 ± 0.26 | -3.21 ± 0.47
42 | CGGUAGCAAUAUUACGACGA | -1.46 ± 0.19 | 0.22 ± 0.17
43 | CGGUAGCAAUAUUACGAGUC | -2.07 ± 0.43 | 
44 | CGGUAGCAAUAUUACGCAAA |  | -1.6 ± 0.42
45 | CGGUAGCAAUAUUACGCAGA | -1.8 ± 0.29 | -1.91 ± 0.2
46 | CGGUAGCAAUAUUACGCAUC |  | -2.58 ± 0.21
47 | CGGUAGCAAUAUUACGCUAG | -2.28 ± 0.34 | -0.219 ± 0.24
48 | CGGUAGCAAUAUUACGCUGC |  | -2.17 ± 0.49
49 | CGGUAGCAAUAUUACGCUGU | -3.2 ± 0.23 | -3.02 ± 0.37
50 | CGGUAGCAAUAUUACGGAAU |  | -1.93 ± 0.47
51 | CGGUAGCAAUAUUACGGAUA |  | -1.54 ± 0.3
52 | CGGUAGCAAUAUUACGGCCA | 0.0804 ± 0.18 | -0.151 ± 0.24
53 | CGGUAGCAAUAUUACGGCGA | -2.69 ± 0.27 | -2.13 ± 0.26
54 | CGGUAGCAAUAUUACGGGCC | -3.47 ± 0.36 | 
55 | CGGUAGCAAUAUUACGGUAC |  | -1.22 ± 0.42
